To fix the notation:
B1: Leucine-rich repeat transmembrane neuronal protein 2 (Homo sapiens), O43300 (parent)
chain: MGLHFKWPLGAPMLAAIYAMSMVLKMLPALGMACPPKCRCEKLLFYCDSQGFHSVPNATDKGSLGLSLRHNHITELERDQFASFSQLTWLHLDHNQISTVKEDAFQGLYKLKELILSSNKIFYLPNTTFTQLINLQNLDLSFNQLSSLHPELFYGLRKLQTLHLRSNSLRTIPVRLFWDCRSLEFLDLSTNRLRSLARNGFAGLIKLRELHLEHNQLTKINFAHFLRLSSLHTLFLQWNKISNLTCGMEWTWGTLEKLDLTGNEIKAIDLTVFETMPNLKILLMDNNKLNSLDSKILNSLRSLTTVGLSGNLWECSARICALASWLGSFQGRWEHSILCHSPDHTQGEDILDAVHGFQLCWNLSTTVTVMATTYRDPTTEYTKRISSSSYHVGDKEIPTTAGIAVTTEEHFPEPDNAIFTQRVITGTMALLFSFFFIIFIVFISRKCCPPTLRRIRQCSMVQNHRQLRSQTRLHMSNMSDQGPYNEYEPTHEGPFIIINGYGQCKCQQLPYKECEV

In this assay the parent is B1. As to conditions: with NRXN1, P58400-1.
Sequence of NRXN1, P58400-1 (P58400 other isoform, or with tags, fused parts or gaps): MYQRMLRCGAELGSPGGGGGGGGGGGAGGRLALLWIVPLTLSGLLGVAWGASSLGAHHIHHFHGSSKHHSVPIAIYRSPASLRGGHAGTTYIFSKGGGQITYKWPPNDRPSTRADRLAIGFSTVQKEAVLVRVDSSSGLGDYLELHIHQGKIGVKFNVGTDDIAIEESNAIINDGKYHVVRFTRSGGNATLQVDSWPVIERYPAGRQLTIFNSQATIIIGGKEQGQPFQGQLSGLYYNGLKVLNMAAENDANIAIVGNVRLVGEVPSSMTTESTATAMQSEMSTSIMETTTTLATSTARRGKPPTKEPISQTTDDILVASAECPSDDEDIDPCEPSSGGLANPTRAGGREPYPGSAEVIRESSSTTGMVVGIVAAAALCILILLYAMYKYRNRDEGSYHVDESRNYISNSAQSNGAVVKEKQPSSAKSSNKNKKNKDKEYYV
On to F357A, for which the “effect of a mutation on the interaction” value is “decreasing interaction strength”. Next, E348Q: “disrupting interaction strength”; H355A: “with no effect”; D352A: “decreasing interaction strength”. The same measure for R208A: “disrupting interaction strength”.

The record behind these values is IntAct's records for PubMed 30262834.
